Results: patent US20250383346A1

Target: Her2 extracellular domain antigen (ACRO Biosystems) (UniProt P04626)
Assay: SPR (Carterra LSA), Fab captured from lysate on Fab Kappa capture reagent, Her2 ECD in solution

Kd: 100 nM
Substance: five standards of trastuzumab Fab
